We go through six molecules from patent US11421006B2, “T cell epitopes from Cockroach and methods of making and using same” (LA JOLLA INSTITUTE FOR ALLERGY AND IMMUNOLOGY, priority 2012, dated 2022).

The test system of assay [1] is Bla g-specific T cells (PBMC). Kind of assay: ELISPOT assays: IL-5, IFN-γ and IL-10 production by in vitro expanded PBMC of Cockroach-allergic donors. To be noted: for Donors responding (%), T cell / Donors responding, T cell (number): 34 donors; for IFN-γ SFC / IL-5 SFC / Total SFC: all peptides of the protein; for Total SFC: IL-5 plus IFN-γ; for share of the response accounted for by the allergen: discussion, PBMC responses from 30 allergic donors; for Ratio IL-5/IFNγ: per protein; for % Total Response: share of total Bla g response per protein. The assay is classed as cell-based, human. The protocol: In vitro expansion of Bla g-specific T cells: PBMC were cultured in RPMI 1640 (V Scientific, Tarzana, Calif.) supplemented with 5% human serum (Cellgro, Herndon, Va.) at a density of 2×10^6 cells/ml in 24-well plates (BD Biosciences, San Jose, Calif.) and stimulated with 25 μg/ml German Cockroach (Blatella germanica; Bla g) extract (Greer, Lenoir, N.C.), or individual peptides. […] On day 14, cells were harvested and screened for reactivity against Bla g-specific peptide pools or individual peptides. ELISPOT assays: The production of IL-5, IFN-γ, and IL-10 was analyzed in ELISPOT assays. […] Cells were then incubated at a density of 1×10^5/well either with peptide pools or individual peptides (10 μg/ml), German Cockroach extract (25 μg/ml), PHA (10 μg/ml), or medium (containing 1% DMSO corresponding to the percentage of DMSO in the pools/peptides) as a control. […] Louis, Mo.). Spots were counted by computer-assisted image analysis (Zeiss, KS-ELISPOT reader, Munich, Germany). Each assay was performed in triplicate. The level of statistical significance was determined with a Student's t-test using the mean of triplicate values of the response against relevant pools or individual peptides versus the response against the DMSO control.

Assay [2] deals with specific IgE antibody in donor sera. Kind of assay: Serological determinations: specific IgE antibody binding by (streptavidin-)ImmunoCAP. The arrangement: species or system human. As to conditions: 34 donors. The protocol:
Serological determinations: Sera were analyzed for specific IgE antibody binding to rBla g 1, rBla g 2, rBla g 4, rBla g 5 and rPer a 7 using allergen-coated streptavidin-ImmunoCAPs. Recombinant allergens were expressed in Pichia pastoris (rBla g 1, rBla g 2, rBla g 4, rPer a 7) or Escherichia coli (rBla g 5) and purified by affinity chromatography. Purified allergens were biotinylated and bound to streptavidin-coated ImmunoCAPs (Phadia US Inc., Portage, Mich.) at an optimized amount of 1 μg per ImmunoCAP. Specific IgE antibody binding to extracts from Blattella germanica (i6), Dermatophagoides pteronyssinus (d1) and D. farinae (d2), and total IgE antibody were also measured by ImmunoCAP analysis.

A short description of assay [3]: Correlation between IgE and T cell responses per donor. To be noted: for Donors with Responses to: Both: IgE and T cell. The arrangement: species or system human. An excerpt:
The correlation between T cell responses and IgE responses was further investigated by examining for each donor which allergens were recognized by IgE and T cell responses (Table V and Table IX).

“Also recorded” adds a separate entry of the source. A value given as a limit tells only on which side of the number the result lay.

B1: Bla g 5: German Cockroach allergen Bla g 5 (protein, listed as Blattella germanica)
chain: MAPSYKLTYCPVKALGEPIRFLLSYGEKDFEDYRFQEGDWPNLKPSMPFGKTPVLEIDGKQTHQSVAISRYLGKQFGLSGKDDWENLEIDMIVDTISDFRAAIANYHYDADENSKQKKWDPLKKETIPYYTKKFDEVVKANGGYLAAGKLTWADFYFVAILDYLNHMAKEDLVANQPNLKALREKVLGLPAIKAWVAKRPPTDL
Take B1: in assay [1], the “T cell response pattern (IL-5 / IFN-γ), in words” value is “both IL-5 and IFN-γ responses were detected”; the “Donors responding (%), T cell” value worked out at 32%; the “Donors responding, T cell (number)” value stood at 11; the “IFN-γ SFC” value is 6875 SFC. Further, in assay [1], the “IL-5 SFC” value was 9637 SFC, the “Total SFC” value was found to be 16512 SFC, the “share of the response accounted for by the allergen” value is recorded as 65% and the “Ratio IL-5/IFNγ” value came out at 1.40. The “% Total Response” value in assay [1] is reported as 67.7%. Moreover, in assay [1] (of the 11 donors responding), the “donors with a strong Th1 bias (ratio >5-fold)” value turned out to be 3, the “donors with a strong Th2 bias” value stood at 3 and the “donors with balanced responses” value turned out to be 5. Also, in assay [2], the “Donors responding (%), IgE” value was determined as 44% and the “Donors responding, IgE (number)” value came to 15. Also, in assay [3], the “Donors with Responses to: IgE Only” value is reported as 8, the “Donors with Responses to: Neither” value is recorded as 15, the “Donors with Responses to: T Cell Only” value turned out to be 4 and the “Donors with Responses to: Both” value turned out to be 7.

B2: Bla g 7: German Cockroach allergen Bla g 7 (protein, listed as Blattella germanica)
chain: MDAIKKKMQAMKLEKDNAMDRALLCEQQARDANIRAEKAEEEARSLQKKIQQIENDLDQTMEQLMQVNAKLDEKDKALQNAESEVAALNRRIQLLEEDLERSEERLATATAKLAEASQAADESERARKILESKGLADEERMDALENQLKEARFMAEEADKKYDEVARKLAMVEADLERAEERAETGESKIVELEEELRVVGNNLKSLEVSEEKANLREEEYKQQIKTLNTRLKEAEARAEFAERSVQKLQKEVDRLEDELVHEKEKYKYICDDLDMTFTELIGN
Regarding B2, in assay [1], the “T cell response pattern (IL-5 / IFN-γ), in words” value is on record as “Little or no response”; the “IFN-γ SFC” value worked out at 0 SFC; the “IL-5 SFC” value is 0 SFC; the “Total SFC” value was 0 SFC. For the same molecule, in assay [1], the “% Total Response” value is reported as 0.0%. Besides, in assay [3], the “Donors with Responses to: IgE Only” value is 4, the “Donors with Responses to: Neither” value was found to be 30, the “Donors with Responses to: T Cell Only” value turned out to be 0 and the “Donors with Responses to: Both” value was determined as 0.

B3: Bla g 6: German Cockroach allergen Bla g 6 (protein, listed as Blattella germanica)
chain: MADEQLQLPPEQISVLRKAFDAFDREKSGSISTNMVEEILRLMGQPFNRRTLEELIDEVDADKSGRLEFDEFVTLAAKFIIEEDSEAMEKELREAFRLYDKEGNGYIPTSCLREILRELDEQLTSDELDMMIEEIDADGSGTVDFDEFMEMMTG
As for B3, in assay [1], the “T cell response pattern (IL-5 / IFN-γ), in words” value is “clear preponderance of IL-5”; the “Donors responding (%), T cell” value is reported as 17%; the “Donors responding, T cell (number)” value came to 5; the “IFN-γ SFC” value came to 310 SFC. In assay [1], the “IL-5 SFC” value is reported as 4045 SFC, the “Total SFC” value is recorded as 4355 SFC, the “share of the response accounted for by the allergen” value came to 20% and the “Ratio IL-5/IFNγ” value came out at 13.0. Besides, in assay [1], the “% Total Response” value was 17.9%.

B4: Bla g 2: German Cockroach allergen Bla g 2 (protein, listed as Blattella germanica)
chain: MIGLKLVTVLFAVATITHAAELQRVPLYKLVHVFINTQYAGITKIGNQNFLTVFDSTSCNVVVASQECVGGACVCPNLQKYEKLKPKYISDGNVQVKFFDTGSAVGRGIEDSLTISNLTTSQQDIVLADELSQEVCILSADVVVGIAAPGCPNALKGKTVLENFVEENLIAPVFSIHHARFQDGEHFGEIIFGGSDWKYVDGEFTYVPLVGDDSWKFRLDGVKIGDTTVAPAGTQAIIDTSKAIIVGPKAYVNPINEAIGCVVEKTTTRRICKLDCSKIPSLPDVTFVINGRNFNISSQYYIQQNGNLCYSGFQPCGHSDHFFIGDFFVDHYYSEFNWENKTMGFGRSVESV
For B4, in assay [1], the “T cell response pattern (IL-5 / IFN-γ), in words” value is “Little or no response; also recorded: responses were detected only for IFN-γ, and not for IL-5”; the “Donors responding (%), T cell” value was found to be 9%; the “Donors responding, T cell (number)” value stood at 3; the “IFN-γ SFC” value came to 1553 SFC. Besides, in assay [1], the “IL-5 SFC” value was 0 SFC, the “Total SFC” value turned out to be 1553 SFC, the “Ratio IL-5/IFNγ” value is recorded as less than 0.01 and the “% Total Response” value stood at 6.4%. Moreover, in assay [2], the “Donors responding (%), IgE” value is listed as 24% and the “Donors responding, IgE (number)” value came to 8. For the same molecule, in assay [3], the “Donors with Responses to: IgE Only” value came to 7, the “Donors with Responses to: Neither” value is given as 24, the “Donors with Responses to: T Cell Only” value is 2 and the “Donors with Responses to: Both” value came to 1.

B5: Bla g 4: German Cockroach allergen Bla g 4 (protein, listed as Blattella germanica)
chain: AVLALCATDTLANEDCFRHESLVPNLDYERFRGSWIIAAGTSEALTQYKCWIDRFSYDDALVSKYTDSQGKNRTTIRGRTKFEGNKFTIDYNDKGKAFSAPYSVLATDYENYAIVEGCPAAANGHVIYVQIRFSVRRFHPKLGDKEMIQHYTLDQVNQHKKAIEEDLKHFNLKYEDLHSTCH
B5: in assay [1], the “T cell response pattern (IL-5 / IFN-γ), in words” value is given as “Little or no response”; the “Donors responding (%), T cell” value was 0 (0) %; the “Donors responding, T cell (number)” value is on record as 0 (0); the “IFN-γ SFC” value was 0 SFC. Moreover, in assay [1], the “IL-5 SFC” value is on record as 0 SFC, the “Total SFC” value was found to be 0 SFC and the “% Total Response” value amounted to 0.0%. For the same molecule, in assay [2], the “Donors responding (%), IgE” value is 12% and the “Donors responding, IgE (number)” value was 4. Besides, in assay [3], the “Donors with Responses to: IgE Only” value came to 4, the “Donors with Responses to: Neither” value amounted to 30, the “Donors with Responses to: T Cell Only” value is listed as 0 and the “Donors with Responses to: Both” value was found to be 0.

B6: Bla g 1: German Cockroach (Blattella germanica) allergen Bla g 1 (protein, listed as Blattella germanica)
chain: NAIEFLNNIHDLLGIPHIPVTARKHHRRGVGITGLIDDIIAILPVDDLYALFQEKLETSPEFKALYDAIRSPEFQSIVGTLEAMPEYQNLIQKLKDKGVDVDHIIELIHQIFNIVRDTRGLPEDLQDFLALIPTDQVLAIAADYLANDAEVKAAVEYLKSDEFETIVVTVDSLPEFKNFLNFLQTNGLNAIEFLNNIHDLLGIPHIPVTGRKHLRRGVGITGLIDDIIAILPVDDLYALFQEKLETSPEFKALYDAIRSPEFQSIVETLKAMPEYQSLIQKLKDKGVDVDHIIELIHQIFNIVRDTRGLPEDLQDFLALIPIDQILAIAADYLANDAEVQAAVEYLKSDEFETIVVTVDSLPEFKNFLNFLQTNGLNAIEFINNIHDLLGIPHIPATGRKHVRRGVGINGLIDDVIAILPVDELYALFQEKLESSPEFKALYDAIRSPEFQSIVQTLKAMPEYQDLIQRLKDKGVDVDHFIELIKKLFGLSH
Turning to B6, in assay [1], the “Donors responding (%), T cell” value is recorded as 12%; the “Donors responding, T cell (number)” value is on record as 4; the “IFN-γ SFC” value was 890 SFC; the “IL-5 SFC” value is 1083 SFC. Moreover, in assay [1], the “Total SFC” value stood at 1973 SFC, the “Ratio IL-5/IFNγ” value was found to be 1.22 and the “% Total Response” value was determined as 8.1%. Further, in assay [2], the “Donors responding (%), IgE” value came to 12% and the “Donors responding, IgE (number)” value amounted to 4. For the same molecule, in assay [3], the “Donors with Responses to: IgE Only” value came to 3, the “Donors with Responses to: Neither” value is listed as 27, the “Donors with Responses to: T Cell Only” value is listed as 3 and the “Donors with Responses to: Both” value was determined as 1.
